According to patent publication US20110294144:
Substitutions are numbered along the chain they refer to. In names and notes the source's numbering stands.

Columns and labels:
[1] = molecular target: endogenous tau of rat primary nerve cells, P19332
[2] = molecular target: wild-type human tau overexpressed in H4-tau cells

Sequence of endogenous tau of rat primary nerve cells, P19332 (P19332 2-752): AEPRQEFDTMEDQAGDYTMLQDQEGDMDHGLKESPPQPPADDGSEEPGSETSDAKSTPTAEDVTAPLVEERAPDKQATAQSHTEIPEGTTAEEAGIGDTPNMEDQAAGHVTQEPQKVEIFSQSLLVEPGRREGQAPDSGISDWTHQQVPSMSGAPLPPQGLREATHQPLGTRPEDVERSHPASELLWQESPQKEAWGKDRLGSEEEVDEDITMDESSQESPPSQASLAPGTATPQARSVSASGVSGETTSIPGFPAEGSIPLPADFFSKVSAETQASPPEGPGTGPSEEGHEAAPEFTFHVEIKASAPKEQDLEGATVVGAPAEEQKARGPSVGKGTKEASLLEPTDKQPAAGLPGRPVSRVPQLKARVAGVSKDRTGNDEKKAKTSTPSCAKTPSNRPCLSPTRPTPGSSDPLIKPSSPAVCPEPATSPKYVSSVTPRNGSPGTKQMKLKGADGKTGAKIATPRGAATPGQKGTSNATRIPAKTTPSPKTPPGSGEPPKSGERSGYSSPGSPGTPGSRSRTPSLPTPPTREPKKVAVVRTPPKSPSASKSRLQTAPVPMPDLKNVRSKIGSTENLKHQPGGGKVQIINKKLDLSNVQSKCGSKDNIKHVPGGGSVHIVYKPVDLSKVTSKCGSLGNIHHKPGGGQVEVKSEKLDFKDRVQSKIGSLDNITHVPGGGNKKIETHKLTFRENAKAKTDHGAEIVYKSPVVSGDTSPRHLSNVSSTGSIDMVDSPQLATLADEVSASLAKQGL

B1: human PRKX (hPRKXkai), overexpressed from pPRKXkai plasmid or PRKX overexpression lentivirus (protein)
chain: MEAPGLAQAAAAESDSRKVAEETPDGAPALCPSPEALSPEPPVYSLQDFDTLATVGTGTFGRVHLVKEKTAKHFFALKVMSIPDVIRLKQEQHVHNEKSVLKEVSHPFLIRLFWTWHDERFLYMLMEYVPGGELFSYLRNRGRFSSTTGLFYSAEIICAIEYLHSKEIVYRDLKPENILLDRDGHIKLTDFGFAKKLVDRTWTLCGTPEYLAPEVIQSKGHGRAVDWWALGILIFEMLSGFPPFFDDNPFGIYQKILAGKIDFPRHLDFHVKDLIKKLLVVDRTRRLGNMKNGANDVKHHRWFRSVDWEAVPQRKLKPPIVPKIAGDGDTSNFETYPENDWDTAAPVPQKDLEIFKNF
[1]
  amount of S214 phosphorylated tau, ELISA, PRKX lentivirus MOI 1: 3.0-fold, 4.2-fold and 6.3-fold enhanced amounts of S214 phosphorylated tau were found in the cells infected with PRKX overexpression lentivirus at MOI-1, 3 and 6, respectively
  amount of S214 phosphorylated tau, ELISA, PRKX lentivirus MOI 3: 3.0-fold, 4.2-fold and 6.3-fold enhanced amounts of S214 phosphorylated tau were found in the cells infected with PRKX overexpression lentivirus at MOI-1, 3 and 6, respectively
  amount of S214 phosphorylated tau, ELISA, PRKX lentivirus MOI 6: 3.0-fold, 4.2-fold and 6.3-fold enhanced amounts of S214 phosphorylated tau were found in the cells infected with PRKX overexpression lentivirus at MOI-1, 3 and 6, respectively
[2]
  S214 phosphorylation of tau, Western blot, 0.02 µg PRKX expression plasmid: 1.3-fold, 1.9-fold and 2.9-fold enhanced S214 phosphorylation was found in the cells incorporating 0.02 µg, 0.06 µg and 0.2 µg of PRKX expression plasmid, respectively
  S214 phosphorylation of tau, Western blot, 0.06 µg PRKX expression plasmid: 1.3-fold, 1.9-fold and 2.9-fold enhanced S214 phosphorylation was found in the cells incorporating 0.02 µg, 0.06 µg and 0.2 µg of PRKX expression plasmid, respectively
  S214 phosphorylation of tau, Western blot, 0.2 µg PRKX expression plasmid: 1.3-fold, 1.9-fold and 2.9-fold enhanced S214 phosphorylation was found in the cells incorporating 0.02 µg, 0.06 µg and 0.2 µg of PRKX expression plasmid, respectively
  amount of S214 phosphorylated tau in the total tau, ELISA, 0.02 µg PRKX expression plasmid: 2.5-fold, 3.4-fold and 5.8-fold enhanced S214 phosphorylation was found in the cells incorporating 0.02 µg, 0.06 µg and 0.2 µg of PRKX expression plasmid, respectively
  amount of S214 phosphorylated tau in the total tau, ELISA, 0.06 µg PRKX expression plasmid: 2.5-fold, 3.4-fold and 5.8-fold enhanced S214 phosphorylation was found in the cells incorporating 0.02 µg, 0.06 µg and 0.2 µg of PRKX expression plasmid, respectively
  amount of S214 phosphorylated tau in the total tau, ELISA, 0.2 µg PRKX expression plasmid: 2.5-fold, 3.4-fold and 5.8-fold enhanced S214 phosphorylation was found in the cells incorporating 0.02 µg, 0.06 µg and 0.2 µg of PRKX expression plasmid, respectively

B2: inactive PRKX protein without kinase activity (D172A), overexpressed from pD172A plasmid or D172A overexpression lentivirus (protein)
chain: B1 chain with D172A
[1]
  amount of S214 phosphorylated tau, ELISA, D172A lentivirus MOI 1, 6: D172A overexpression lentivirus and lacZ overexpression lentivirus did not show an enhanced amount of S214 phosphorylated tau
[2]
  S214 phosphorylation of tau, Western blot and ELISA: enhanced S214 phosphorylation was not found in pD172A tranfected cell
